According to paper PMC4391858:

Assays:
[1] = confocal immunocytochemistry of coexpressed DLL1, CHO cells; details: glycan lost; control: wild type DLL3
[2] = cycloheximide chase, Western blot, CHO cells; details: glycan lost; control: wild type DLL3

B1: Delta-like 3 (DLL3): DLL3-S286A,T403V (protein)
parent chain: MVSLQVSPLSQTLILAFLLPQALPAGVFELQIHSFGPGPGLGTPRSPCNARGPCRLFFRVCLKPGVSQEATESLCALGAALSTSVPVYTEHPGESAAALPLPDGLVRVPFRDAWPGTFSLVIETWREQLGEHAGGPAWNLLARVVGRRRLAAGGPWARDVQRTGTWELHFSYRARCEPPAVGAACARLCRSRSAPSRCGPGLRPCTPFPDECEAPSVCRPGCSPEHGYCEEPDECRCLEGWTGPLCTVPVSTSSCLNSRVPGPASTGCLLPGPGPCDGNPCANGGSCSETSGSFECACPRGFYGLRCEVSGVTCADGPCFNGGLCVGGEDPDSAYVCHCPPGFQGSNCEKRVDRCSLQPCQNGGLCLDLGHALRCRCRAGFAGPRCEHDLDDCAGRACANGGTCVEGGGSRRCSCALGFGGRDCRERADPCASRPCAHGGRCYAHFSGLVCACAPGYMGVRCEFAVRPDGADAVPAAPRGLRQADPQRFLLPPALGLLVAAGLAGAALLVIHVRRRGPGQDTGTRLLSGTREPSVHTLPDALNNLRLQDGAGDGPSSSADWNHPEDGDSRSIYVIPAPSIYAREDWLIQVLF
- localisation_or_trafficking, other: cells with DLL1 relocalised outside Golgi [1]: decreases, the intracellular DLL1 staining did not change obviously (10 out of 14 cells
- degradation_or_half_life [2]: no change
